In US10738094B2, “Peptides and combination of peptides for use in immunotherapy against ovarian cancer and other cancers” (immatics biotechnologies GmbH, priority 2015, dated 2020):

Target: HLA-A*02:01 (Homo sapiens, UniProt P04439, D140Y/D185E/D98H/E176V/E277Q/G131W/G231S/I119V/I121R/I166T/I218V/L300P/L318F/N151K/N90K/P208A/P217A/Q86G/Q94H/R138H/R169H/T345S)
Assay: MHC binding assay (UV-ligand exchange, beta2m ELISA)
Details: binding to HLA-A*02:01 ranged by peptide exchange yield (UV-ligand exchange, β2m ELISA)
Source text: Candidate peptides for T cell based therapies according to the present invention were further tested for their MHC binding capacity (affinity). The individual peptide-MHC complexes were produced by UV-ligand exchange, where a UV-sensitive peptide is cleaved upon UV-irradiation, and exchanged with the peptide of interest as analyzed. Only peptide candidates that can effectively bind and stabilize the peptide-receptive MHC molecules prevent dissociation of the MHC complexes. To determine the yield of the exchange reaction, an ELISA was performed based on the detection of the light chain (β2m) of stabilized MHC complexes. The assay was performed as generally described in Rodenko et al. (Rodenko et al., 2006).
96 well MAXISorp plates (NUNC) were coated over night with 2 ug/ml streptavidin in PBS at room temperature, washed 4× and blocked for 1 h at 37° C. in 2% BSA containing blocking buffer. […] Peptide-MHC monomers of the UV-exchange reaction were diluted 100 fold in blocking buffer. Samples were incubated for 1 h at 37° C., washed four times, incubated with 2 ug/ml HRP conjugated anti-β2m for 1 h at 37° C., washed again and detected with TMB solution that is stopped with […]. Absorption was measured at 450 nm. Candidate peptides that show a high exchange yield (preferably higher than 50%, most preferred higher than 75%) are generally preferred for a generation and production of antibodies or fragments thereof, and/or T cell receptors or fragments thereof, as they show sufficient avidity to the MHC molecules and prevent dissociation of the MHC complexes.

1 (SLMEPPAVLLL; listed as Homo sapiens) [compound 1]
Peptide exchange: “+++” (≥50 = +++)

4 (GIMEHITKI; listed as Homo sapiens) [compound 4]
Peptide exchange: “++++” (≥75% = ++++)

5 (HLTEVYPEL; listed as Homo sapiens) [compound 5]
Peptide exchange: “+++” (≥50 = +++)

6 (VLVSDGVHSV; listed as Homo sapiens) [compound 6]
Peptide exchange: “+++” (≥50 = +++)

7 (SLVGLLLYL; listed as Homo sapiens) [compound 7]
Peptide exchange: “++++” (≥75% = ++++)

9 (GAAKDLPGV; listed as Homo sapiens) [compound 9]
Peptide exchange: “++” (≥20% = ++)

10 (FLATFPLAAV; listed as Homo sapiens) [compound 10]
Peptide exchange: “++++” (≥75% = ++++)

12 (SLWPDPMEV; listed as Homo sapiens) [compound 12]
Peptide exchange: “+++” (≥50 = +++)

13 (YLMDESLNL; listed as Homo sapiens) [compound 13]
Peptide exchange: “+++” (≥50 = +++)

14 (AAYGGLNEKSFV; listed as Homo sapiens) [compound 14]
Peptide exchange: “+++” (≥50 = +++)

15 (VLLTFKIFL; listed as Homo sapiens) [compound 15]
Peptide exchange: “++” (≥20% = ++)

16 (VLFQGQASL; listed as Homo sapiens) [compound 16]
Peptide exchange: “+++” (≥50 = +++)

17 (GLLPGDRLVSV; listed as Homo sapiens) [compound 17]
Peptide exchange: “+++” (≥50 = +++)

18 (YLVAKLVEV; listed as Homo sapiens) [compound 18]
Peptide exchange: “++” (≥20% = ++)

19 (FMVDNEAIYDI; listed as Homo sapiens) [compound 19]
Peptide exchange: “++++” (≥75% = ++++)

20 (RMIEYFIDV; listed as Homo sapiens) [compound 20]
Peptide exchange: “+++” (≥50 = +++)

21 (VLDELDMEL; listed as Homo sapiens) [compound 21]
Peptide exchange: “++” (≥20% = ++)

22 (IMEENPGIFAV; listed as Homo sapiens) [compound 22]
Peptide exchange: “+++” (≥50 = +++)

23 (VLLDDIFAQL; listed as Homo sapiens) [compound 23]
Peptide exchange: “+++” (≥50 = +++)

24 (SLSDGLEEV; listed as Homo sapiens) [compound 24]
Peptide exchange: “++” (≥20% = ++)

25 (FLPDEPYIKV; listed as Homo sapiens) [compound 25]
Peptide exchange: “+++” (≥50 = +++)

26 (ALLELAEEL; listed as Homo sapiens) [compound 26]
Peptide exchange: “+++” (≥50 = +++)

27 (ILADIVISA; listed as Homo sapiens) [compound 27]
Peptide exchange: “+++” (≥50 = +++)

28 (QLLDETSAITL; listed as Homo sapiens) [compound 28]
Peptide exchange: “+++” (≥50 = +++)

29 (KMLGIPISNILMV; listed as Homo sapiens) [compound 29]
Peptide exchange: “+++” (≥50 = +++)

30 (LILDWVPYI; listed as Homo sapiens) [compound 30]
Peptide exchange: “+++” (≥50 = +++)

31 (YLAPELFVNV; listed as Homo sapiens) [compound 31]
Peptide exchange: “++” (≥20% = ++)

32 (KLDDLTQDLTV; listed as Homo sapiens) [compound 32]
Peptide exchange: “++” (≥20% = ++)

33 (VLLSLLEKV; listed as Homo sapiens) [compound 33]
Peptide exchange: “++” (≥20% = ++)

34 (ILVEADSLWVV; listed as Homo sapiens) [compound 34]
Peptide exchange: “+++” (≥50 = +++)

35 (KINDTIYEV; listed as Homo sapiens) [compound 35]
Peptide exchange: “+++” (≥50 = +++)

39 (SVAPNLPAV; listed as Homo sapiens) [compound 39]
Peptide exchange: “+++” (≥50 = +++)

40 (TLLVKVFSV; listed as Homo sapiens) [compound 40]
Peptide exchange: “+++” (≥50 = +++)

41 (SLMPHIPGL; listed as Homo sapiens) [compound 41]
Peptide exchange: “+++” (≥50 = +++)

42 (VLLQKIVSA; listed as Homo sapiens) [compound 42]
Peptide exchange: “+++” (≥50 = +++)

43 (VLSSLEINI; listed as Homo sapiens) [compound 43]
Peptide exchange: “++” (≥20% = ++)

44 (ILDPISSGFLL; listed as Homo sapiens) [compound 44]
Peptide exchange: “++” (≥20% = ++)

45 (SLWQDIPDV; listed as Homo sapiens) [compound 45]
Peptide exchange: “+++” (≥50 = +++)

46 (ILTEENIHL; listed as Homo sapiens) [compound 46]
Peptide exchange: “+++” (≥50 = +++)

47 (ILLSVPLLVV; listed as Homo sapiens) [compound 47]
Peptide exchange: “++” (≥20% = ++)

49 (YLPAVFEEV; listed as Homo sapiens) [compound 49]
Peptide exchange: “+++” (≥50 = +++)

50 (SLSELEALM; listed as Homo sapiens) [compound 50]
Peptide exchange: “+++” (≥50 = +++)

51 (LLPDLEFYV; listed as Homo sapiens) [compound 51]
Peptide exchange: “++++” (≥75% = ++++)

52 (FLLAHGLGFLL; listed as Homo sapiens) [compound 52]
Peptide exchange: “++++” (≥75% = ++++)

53 (KMIETDILQKV; listed as Homo sapiens) [compound 53]
Peptide exchange: “++++” (≥75% = ++++)

54 (SLLEQGKEPWMV; listed as Homo sapiens) [compound 54]
Peptide exchange: “+++” (≥50 = +++)

55 (SLLDLETLSL; listed as Homo sapiens) [compound 55]
Peptide exchange: “++++” (≥75% = ++++)

57 (TLAELQPPVQL; listed as Homo sapiens) [compound 57]
Peptide exchange: “+++” (≥50 = +++)

59 (IMEDIILTL; listed as Homo sapiens) [compound 59]
Peptide exchange: “+++” (≥50 = +++)

61 (FLQGYQLHL; listed as Homo sapiens) [compound 61]
Peptide exchange: “++++” (≥75% = ++++)

62 (VLLDVSAGQLLM; listed as Homo sapiens) [compound 62]
Peptide exchange: “++++” (≥75% = ++++)

63 (YLLPSGGSVTL; listed as Homo sapiens) [compound 63]
Peptide exchange: “++” (≥20% = ++)

64 (YAAPGGLIGV; listed as Homo sapiens) [compound 64]
Peptide exchange: “++” (≥20% = ++)

66 (FLDENIGGVAV; listed as Homo sapiens) [compound 66]
Peptide exchange: “+++” (≥50 = +++)

67 (TLLAEALVTV; listed as Homo sapiens) [compound 67]
Peptide exchange: “+++” (≥50 = +++)

68 (SLMELPRGLFL; listed as Homo sapiens) [compound 68]
Peptide exchange: “++++” (≥75% = ++++)

69 (FQLDPSSGVLVTV; listed as Homo sapiens) [compound 69]
Peptide exchange: “+++” (≥50 = +++)

70 (GLLDYPVGV; listed as Homo sapiens) [compound 70]
Peptide exchange: “+++” (≥50 = +++)

71 (GILARIASV; listed as Homo sapiens) [compound 71]
Peptide exchange: “+++” (≥50 = +++)

72 (SLLELDGINL; listed as Homo sapiens) [compound 72]
Peptide exchange: “+++” (≥50 = +++)

73 (NIFDLQIYV; listed as Homo sapiens) [compound 73]
Peptide exchange: “+++” (≥50 = +++)

74 (ALLDPEVLSIFV; listed as Homo sapiens) [compound 74]
Peptide exchange: “+++” (≥50 = +++)

75 (GLLEVMVNL; listed as Homo sapiens) [compound 75]
Peptide exchange: “+++” (≥50 = +++)

76 (ILIDSIYKV; listed as Homo sapiens) [compound 76]
Peptide exchange: “+++” (≥50 = +++)

77 (ILVEADGAWVV; listed as Homo sapiens) [compound 77]
Peptide exchange: “++++” (≥75% = ++++)

78 (SLFSSLEPQIQPV; listed as Homo sapiens) [compound 78]
Peptide exchange: “+++” (≥50 = +++)

80 (FLYDNLVESL; listed as Homo sapiens) [compound 80]
Peptide exchange: “++” (≥20% = ++)

81 (FLFSQLQYL; listed as Homo sapiens) [compound 81]
Peptide exchange: “++” (≥20% = ++)

82 (FLSSVTYNL; listed as Homo sapiens) [compound 82]
Peptide exchange: “+++” (≥50 = +++)

83 (ILAPTVMMI; listed as Homo sapiens) [compound 83]
Peptide exchange: “+++” (≥50 = +++)

84 (VTFGEKLLGV; listed as Homo sapiens) [compound 84]
Peptide exchange: “++” (≥20% = ++)

85 (KMSELRVTL; listed as Homo sapiens) [compound 85]
Peptide exchange: “+++” (≥50 = +++)

86 (NLIGKIENV; listed as Homo sapiens) [compound 86]
Peptide exchange: “+++” (≥50 = +++)
